This note sets out measurements from article PMC4644379.

For experiment [1], the target named is NKG2D on human NK cells (human (endogenous in NK cells and CD8+ T cells from PBMC)) (UniProt P26718).
Experiment [2] has the same target. The source holds these as a separate data set.
Experiment [3] shares this target. The source holds these as a separate data set.
Experiment [4] has the same target. The source holds these as a separate data set.
The target is the same in experiment [5]. This is another data set of the same source.
For experiment [6] the target is unchanged. This is another data set of the same source.
For experiment [7] the target is unchanged. The source holds these as a separate data set.

UniProt P26718, sequence (P26718 whole entry): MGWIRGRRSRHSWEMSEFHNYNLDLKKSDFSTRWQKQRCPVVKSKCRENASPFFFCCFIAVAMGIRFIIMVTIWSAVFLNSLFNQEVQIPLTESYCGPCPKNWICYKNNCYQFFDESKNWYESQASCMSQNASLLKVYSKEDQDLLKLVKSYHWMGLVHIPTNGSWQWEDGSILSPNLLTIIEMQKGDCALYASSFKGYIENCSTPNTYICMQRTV

In experiment [1], “MICA-129Met variant (MICA*00701 allele) expressed on L cells (from UniProt Q29983 24-383) (ligand)” returned a regression coefficient of the MFI of CD107a on NK cells against MICA expression intensity on target clones of 0.05. Besides, the regression coefficient of killing by LAK cells against MICA expression intensity on target clones in experiment [2] is -0.0834. In experiment [3], the regression coefficient of the MFI of IFNγ in CD56brightCD16- NK cells against MICA expression intensity was -1.11. Also, in experiment [4], the IFNγ release (ELISA) of NK cells co-cultured 24 h with L cell clones, difference to L-MICA-129Val, adjusted for MICA expression (pg/ml higher than with L-MICA-129Val) amounted to 176 and the IFNγ release (ELISA) of NK cells, effect of MICA expression intensity on target clones (pg/ml per MFI unit) worked out at 0.142. Also, in experiment [5], the down-regulation of NKG2D on NK cells co-cultured 4 and 24 h with L cell clones: MFI of NKG2D against L-con came to 13.7 MFI units; the down-regulation of NKG2D on NK cells co-cultured 4 and 24 h with L cell clones: percentage of NKG2D+ NK cells against L-con was found to be 19.4 %-points; the down-regulation of NKG2D on NK cells: percentage of NKG2D+ cells, difference between L-MICA-129Met and L-MICA-129Val targets (%-points against L-MICA-129Val) is -9.3. In experiment [6], this substance gave an NKG2D expression on CD56brightCD16+ NK cells after 4 and 24 h, lower with L-MICA-129Met than with L-MICA-129Val clones (%-points lower than with L-MICA-129Val) of 16.2; an NKG2D expression on CD56brightCD16- NK cells after 4 and 24 h, lower with L-MICA-129Met than with L-MICA-129Val clones (%-points lower than with L-MICA-129Val) of 15.8; an NKG2D expression on CD56dimCD16+ NK cells after 4 and 24 h, lower with L-MICA-129Met than with L-MICA-129Val clones (%-points lower than with L-MICA-129Val) of 19.5. Also, in experiment [7], the down-regulation of NKG2D on CD8+ T cells co-cultured with L cell clones: MFI of NKG2D, difference to L-MICA-129Val (MFI units more than with L-MICA-129Val) stood at 12.1 and the down-regulation of NKG2D on CD8+ T cells co-cultured with L cell clones: proportion of NKG2D+CD3+CD8+ cells, difference to L-MICA-129Val (%-points more than with L-MICA-129Val) turned out to be 35.8.
Turning to “MICA-129Val variant (MICA*00701 with valine at position 129) expressed on L cells (from UniProt Q29983 24-383) (ligand)”, in experiment [1], the degranulation of NK cells exposed to L cell clones: MFI of CD107a, difference to L-MICA-129Met, adjusted for MICA expression (MFI units lower than with L-MICA-129Met) was 38.5; the degranulation of NK cells exposed to L cell clones: percentage of CD107a+ NK cells, difference to L-MICA-129Met, adjusted for MICA expression (%-points less than with L-MICA-129Met) worked out at 10.1; the regression coefficient of the MFI of CD107a on NK cells against MICA expression intensity on target clones was determined as 0.29. In experiment [2], this substance showed a regression coefficient of killing by LAK cells against MICA expression intensity on target clones of 0.126 and a relative lysis of L cell clones by LAK cells (51Cr release, E:T 200:1), difference to L-MICA-129Met, adjusted for MICA expression (%-points reduced against L-MICA-129Met) of 13. In experiment [3], this substance displayed an intracellular IFNγ (MFI) in CD56brightCD16- NK cells co-cultured 4 h with L cell clones, difference to L-MICA-129Met (MFI units lower than with L-MICA-129Met) of 12.5; a percentage of IFNγ+ CD56brightCD16- NK cells co-cultured 4 h with L cell clones, difference to L-MICA-129Met (%-points less than with L-MICA-129Met) of 7.5; a regression coefficient of the MFI of IFNγ in CD56brightCD16- NK cells against MICA expression intensity of 0.09; a regression coefficient of the proportion of IFNγ+ CD56brightCD16- NK cells against MICA expression intensity of 0.14. This substance also registered an IFNγ release (ELISA) of NK cells, effect of MICA expression intensity on target clones (pg/ml per MFI unit of MICA) in experiment [4] of 1.1. In experiment [5], this substance came in with a down-regulation of NKG2D on NK cells co-cultured 4 and 24 h with L cell clones: MFI of NKG2D against L-con of 11.8 MFI units; a down-regulation of NKG2D on NK cells co-cultured 4 and 24 h with L cell clones: percentage of NKG2D+ NK cells against L-con of 9.5 %-points.
